The record followed here is paper PMC12416549 (2024).

T1: TNFR1 (Homo sapiens, UniProt P19438)
T1 chain: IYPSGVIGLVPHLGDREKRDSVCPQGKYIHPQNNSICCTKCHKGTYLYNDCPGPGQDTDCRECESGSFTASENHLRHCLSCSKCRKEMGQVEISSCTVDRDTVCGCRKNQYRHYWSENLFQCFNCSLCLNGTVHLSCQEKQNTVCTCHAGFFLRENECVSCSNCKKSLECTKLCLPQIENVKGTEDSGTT

B1: L26S (designed binder)
chain: MTLQELLREEALRRAEAEAFRYALESLAEKFPEQKEYLLDLAEEIESQIRSLSGVDVEDVRKFLDKEWAWVKELLAEHPAELAEVEAARAARLAELRAEVEAKVAA
B2: E10Y (designed binder)
chain: B1 chain with E10Y, S26L
B3: E99L (designed binder)
chain: B1 chain with S26L, E99L
B4: V57S (designed binder)
chain: B1 chain with S26L, V57S
B5: K103E (designed binder)
chain: B1 chain with S26L, K103E
B6: A17F (designed binder)
chain: B1 chain with A17F, S26L
B7: Q34S (designed binder)
chain: B1 chain with S26L, Q34S
B8: A17C (designed binder)
chain: B1 chain with A17C, S26L
B9: R13Q (designed binder)
chain: B1 chain with R13Q, S26L
B10: A87Y (designed binder)
chain: B1 chain with S26L, A87Y
B11: R14Q (designed binder)
chain: B1 chain with R14Q, S26L
B12: R14V (designed binder)
chain: B1 chain with R14V, S26L
B13: K72C (designed binder)
chain: B1 chain with S26L, K72C
B14: S51F (designed binder)
chain: B1 chain with S26L, S51F
B15: V57N (designed binder)
chain: B1 chain with S26L, V57N
B16: E29Y (designed binder)
chain: B1 chain with S26L, E29Y
B17: E43H (designed binder)
chain: B1 chain with S26L, E43H
B18: E18S (designed binder)
chain: B1 chain with E18S, S26L
B19: E10V (designed binder)
chain: B1 chain with E10V, S26L
B20: V71K (designed binder)
chain: B1 chain with S26L, V71K
B21: A11G (designed binder)
chain: B1 chain with A11G, S26L
B22: K35N (designed binder)
chain: B1 chain with S26L, K35N
B23: E43Y (designed binder)
chain: B1 chain with S26L, E43Y
B24: L7M (designed binder)
chain: B1 chain with L7M, S26L
B25: E44Q (designed binder)
chain: B1 chain with S26L, E44Q
B26: K62A (designed binder)
chain: B1 chain with S26L, K62A
B27: A19G (designed binder)
chain: B1 chain with A19G, S26L
B28: E99H (designed binder)
chain: B1 chain with S26L, E99H
B29: E46M (designed binder)
chain: B1 chain with S26L, E46M
B30: E46D (designed binder)
chain: B1 chain with S26L, E46D
B31: Y22E (designed binder)
chain: B1 chain with Y22E, S26L
B32: K35L (designed binder)
chain: B1 chain with S26L, K35L
B33: A102G (designed binder)
chain: B1 chain with S26L, A102G
B34: L52C (designed binder)
chain: B1 chain with S26L, L52C
B35: P32R (designed binder)
chain: B1 chain with S26L, P32R
B36: A28V (designed binder)
chain: B1 chain with S26L, A28V
B37: Q34M (designed binder)
chain: B1 chain with S26L, Q34M
B38: R14C (designed binder)
chain: B1 chain with R14C, S26L
B39: E101M (designed binder)
chain: B1 chain with S26L, E101M
B40: E95N (designed binder)
chain: B1 chain with S26L, E95N
B41: K72F (designed binder)
chain: B1 chain with S26L, K72F
B42: E46T (designed binder)
chain: B1 chain with S26L, E46T
B43: E10P (designed binder)
chain: B1 chain with E10P, S26L
B44: F63V (designed binder)
chain: B1 chain with S26L, F63V
B45: R97S (designed binder)
chain: B1 chain with S26L, R97S
B46: L41I (designed binder)
chain: B1 chain with S26L, L41I
B47: L52P (designed binder)
chain: B1 chain with S26L, L52P
B48: E18L (designed binder)
chain: B1 chain with E18L, S26L
B49: S51R (designed binder)
chain: B1 chain with S26L, S51R
B50: R21W (designed binder)
chain: B1 chain with R21W, S26L
B51: R13H (designed binder)
chain: B1 chain with R13H, S26L
B52: L6A (designed binder)
chain: B1 chain with L6A, S26L
B53: D56P (designed binder)
chain: B1 chain with S26L, D56P
B54: E5R (designed binder)
chain: B1 chain with E5R, S26L
B55: A23N (designed binder)
chain: B1 chain with A23N, S26L

Changes are numbered by the printed parent chain. Numbers in names are those of the source.

In this experiment the target is T1, TNFR1. Put plainly: yeast display SC50.
Consider B1, for which the “apparent Kd (screen)” value is 0.49 nM. For B2 the value was 0.653 nM; for B3, 0.653 nM; for B4, 0.653 nM. Take B5: the “apparent Kd (screen)” value is 0.79 nM. As to B6, the “apparent Kd (screen)” value came to 0.49 nM. For B7 the value was 0.49 nM; for B8, 0.446 nM. As to B9, the “apparent Kd (screen)” value was 0.142 nM. Regarding B10, the “apparent Kd (screen)” value was found to be 0.79 nM. Consider B11, for which the “apparent Kd (screen)” value worked out at 0.593 nM. Take B12: the “apparent Kd (screen)” value amounted to 0.956 nM. With B13, the “apparent Kd (screen)” value came out at 0.718 nM. Next, B14: 0.368 nM. On to B15, for which the “apparent Kd (screen)” value was found to be 1.54 nM. For the molecule B16, the “apparent Kd (screen)” value turned out to be 0.539 nM. For B17 the value was 0.718 nM; for B18, 0.405 nM.

As for B19, the “apparent Kd (screen)” value turned out to be 0.956 nM. Turning to B20, the “apparent Kd (screen)” value was determined as 12.5 nM.

Consider B21, for which the “apparent Kd (screen)” value stood at 0.956 nM.

Regarding B22, the “apparent Kd (screen)” value is 0.405 nM. For B23 the value was 0.142 nM; for B24, 2.48 nM. With B25, the “apparent Kd (screen)” value was 9.41 nM. For B26 the value was 0.593 nM. For B27 the value was 0.593 nM; for B28, 0.49 nM; for B29, 0.49 nM. For B30 the value was 0.539 nM; for B31, 0.304 nM. Consider B32, for which the “apparent Kd (screen)” value is 0.405 nM. As for B33, the “apparent Kd (screen)” value amounted to 0.653 nM.

With B34, the “apparent Kd (screen)” value stood at 2.48 nM. For B35, the “apparent Kd (screen)” value is 0.539 nM. On to B36, for which the “apparent Kd (screen)” value stood at 2.05 nM. For B37, the “apparent Kd (screen)” value was 2.73 nM. Turning to B38, the “apparent Kd (screen)” value came to 0.539 nM. For the molecule B39, the “apparent Kd (screen)” value stood at 0.653 nM. With B40, the “apparent Kd (screen)” value is 0.718 nM. For B41 the value was 0.593 nM; for B42, 0.653 nM; for B43, 12.5 nM.

For the molecule B44, the “apparent Kd (screen)” value stood at 1.27 nM. Take B45: the “apparent Kd (screen)” value is 0.956 nM. For B46 the value was 2.73 nM. In the case of B47, the “apparent Kd (screen)” value turned out to be 6.43 nM. For B48 the value was 0.539 nM; for B49, 1.05 nM. Take B50: the “apparent Kd (screen)” value was determined as 0.49 nM. For B51 the value was 0.405 nM; for B52, 1.54 nM; for B53, 6.43 nM. As to B54, the “apparent Kd (screen)” value stood at 0.49 nM. For B55 the value was 0.405 nM.
